From article PMC7367873, “Dissecting the sequence determinants for dephosphorylation by the catalytic subunits of phosphatases PP1 and PP2A” (Nature Communications, 2020)

Key:
[1] = system: GFP-14-3-3β and its binding proteins; test: GFP-14-3-3β co-IP with LC-MS/MS label-free quantification, untreated versus PP1c-treated; set-up: species or system human; conditions: pairwise comparison PP1 vs untreated, 3 replicates each
GFP-14-3-3β = GFP-14-3-3β co-IP with LC-MS/MS, untreated GFP-14-3-3β versus GFP control (14-3-3 interactome); assay type: binding, human; conditions: 3 replicates each
[2] = student's t-test, LC-MS/MS label-free quantification
[3] = pairwise comparison untreated GFP-14-3-3β vs GFP, student's t-test, LC-MS/MS label-free quantification
[4] = log2 difference, label-free quantification
[5] = log2 difference, pairwise comparison untreated vs GFP, label-free quantification

Molecule | Difference (log2), PP1 vs untreated [1, 2] [log2] | Difference (log2), untreated vs GFP (GFP-14-3-3β; [3]) [log2] | Difference (log2), PP1 vs untreated [1, 4] | Difference (log2), untreated vs GFP (GFP-14-3-3β; [5])
GLCCI1 (protein, UniProt Q86VQ1 1-547, looked up) Glucocorticoid-induced …: MSTASSSSSSSSSQTPHPPSQRMRRSAAGSPPAVAAAGSGNGAGGGGGVGCAPAAGAGRLLQPIRATVPYQLLRGSQHSPTRPPVAAAAASLGSLPGPGAARGPSPSSPTPPAAAAPAEQAPRAKGRPRRSPESHRRSSSPERRSPGSPVCRADKAKSQQVRTSSTIRRTSSLDTITGPYLTGQWPRDPHVHYPSCMKDKATQTPSCWAEEGAEKRSHQRSASWGSADQLKEQIAKLRQQLQRSKQSSRHSKEKDRQSPLHGNHITISHTQATGSRSVPMPLSNISVPKSSVSRVPCNVEGISPELEKVFIKENNGKEEVSKPLDIPDGRRAPLPAHYRSSSTRSIDTQTPSVQERSSSCSSHSPCVSPFCPPESQDGSPCSTEDLLYDRDKDSGSSSPLPKYASSPKPNNSYMFKREPPEGCERVKVFEEMASRQPISAPLFSCPDKNKVNFIPTGSAFCPVKLLGPLLPASDLMLKNSPNSGQSSALATLTVEQLSSRVSFTSLSDDTSTAGSMEASVQQPSQQQQLLQELQGEDHISAQNYVII | -4.246 | 4.69 | – | –
PA2G4 (protein, UniProt Q9UQ80 2-394, looked up) Proliferation-associated …: SGEDEQQEQTIAEDLVVTKYKMGGDIANRVLRSLVEASSSGVSVLSLCEKGDAMIMEETGKIFKKEKEMKKGIAFPTSISVNNCVCHFSPLKSDQDYILKEGDLVKIDLGVHVDGFIANVAHTFVVDVAQGTQVTGRKADVIKAAHLCAEAALRLVKPGNQNTQVTEAWNKVAHSFNCTPIEGMLSHQLKQHVIDGEKTIIQNPTDQQKKDHEKAEFEVHEVYAVDVLVSSGEGKAKDAGQRTTIYKRDPSKQYGLKMKTSRAFFSEVERRFDAMPFTLRAFEDEKKARMGVVECAKHELLQPFNVLYEKEGEFVAQFKFTVLLMPNGPMRITSGPFEPDLYKSEMEVQDAELKALLQSSASRKTQKKKKKKASKTAENATSGETLEENEAGD | – | – | 1.519 | 0.3875
PAK4 (protein, UniProt O96013 1-591, looked up) Serine/threonine-protein …: MFGKRKKRVEISAPSNFEHRVHTGFDQHEQKFTGLPRQWQSLIEESARRPKPLVDPACITSIQPGAPKTIVRGSKGAKDGALTLLLDEFENMSVTRSNSLRRDSPPPPARARQENGMPEEPATTARGGPGKAGSRGRFAGHSEAGGGSGDRRRAGPEKRPKSSREGSGGPQESSRDKRPLSGPDVGTPQPAGLASGAKLAAGRPFNTYPRADTDHPSRGAQGEPHDVAPNGPSAGGLAIPQSSSSSSRPPTRARGAPSPGVLGPHASEPQLAPPACTPAAPAVPGPPGPRSPQREPQRVSHEQFRAALQLVVDPGDPRSYLDNFIKIGEGSTGIVCIATVRSSGKLVAVKKMDLRKQQRRELLFNEVVIMRDYQHENVVEMYNSYLVGDELWVVMEFLEGGALTDIVTHTRMNEEQIAAVCLAVLQALSVLHAQGVIHRDIKSDSILLTHDGRVKLSDFGFCAQVSKEVPRRKSLVGTPYWMAPELISRLPYGPEVDIWSLGIMVIEMVDGEPPYFNEPPLKAMKMIRDNLPPRLKNLHKVSPSLKGFLDRLLVRDPAQRATAAELLKHPFLAKAGPPASIVPLMRQNRTR | -4.365 | 5.767 | – | –
EIF4E2 (protein, UniProt O60573 1-245, looked up) Eukaryotic translation …: MNNKFDALKDDDSGDHDQNEENSTQKDGEKEKTERDKNQSSSKRKAVVPGPAEHPLQYNYTFWYSRRTPGRPTSSQSYEQNIKQIGTFASVEQFWRFYSHMVRPGDLTGHSDFHLFKEGIKPMWEDDANKNGGKWIIRLRKGLASRCWENLILAMLGEQFMVGEEICGAVVSVRFQEDIISIWNKTASDQATTARIRDTLRRVLNLPPNTIMEYKTHTDSIKMPGRLGPQRLLFQNLWKPRLNVP | -4.306 | 3.4457 | – | –
GIT1 (protein, UniProt Q9Y2X7 1-761, looked up) ARF GTPase-activating protein …: MSRKGPRAEVCADCSAPDPGWASISRGVLVCDECCSVHRSLGRHISIVKHLRHSAWPPTLLQMVHTLASNGANSIWEHSLLDPAQVQSGRRKANPQDKVHPIKSEFIRAKYQMLAFVHKLPCRDDDGVTAKDLSKQLHSSVRTGNLETCLRLLSLGAQANFFHPEKGTTPLHVAAKAGQTLQAELLVVYGADPGSPDVNGRTPIDYARQAGHHELAERLVECQYELTDRLAFYLCGRKPDHKNGHYIIPQMADSLDLSELAKAAKKKLQALSNRLFEELAMDVYDEVDRRENDAVWLATQNHSTLVTERSAVPFLPVNPEYSATRNQGRQKLARFNAREFATLIIDILSEAKRRQQGKSLSSPTDNLELSLRSQSDLDDQHDYDSVASDEDTDQEPLRSTGATRSNRARSMDSSDLSDGAVTLQEYLELKKALATSEAKVQQLMKVNSSLSDELRRLQREIHKLQAENLQLRQPPGPVPTPPLPSERAEHTPMAPGGSTHRRDRQAFSMYEPGSALKPFGGPPGDELTTRLQPFHSTELEDDAIYSVHVPAGLYRIRKGVSASAVPFTPSSPLLSCSQEGSRHTSKLSRHGSGADSDYENTQSGDPLLGLEGKRFLELGKEEDFHPELESLDGDLDPGLPSTEDVILKTEQVTKNIQELLRAAQEFKHDSFVPCSEKIHLAVTEMASLFPKRPALEPVRSSLRLLNASAYRLQSECRKTVPPEPGAPVDFQLLTQQVIQCAYDIAKAAKQLVTITTREKKQ | -4.417 | 5.06 | – | –
EDC3 (protein, UniProt Q96F86 1-508, looked up) Enhancer of mRNA-decapping …: MATDWLGSIVSINCGDSLGVYQGRVSAVDQVSQTISLTRPFHNGVKCLVPEVTFRAGDITELKILEIPGPGDNQHFGDLHQTELGPSGAGCQVGINQNGTGKFVKKPASSSSAPQNIPKRTDVKSQDVAVSPQQQQCSKSYVDRHMESLSQSKSFRRRHNSWSSSSRHPNQATPKKSGLKNGQMKNKDDECFGDDIEEIPDTDFDFEGNLALFDKAAVFEEIDTYERRSGTRSRGIPNERPTRYRHDENILESEPIVYRRIIVPHNVSKEFCTDSGLVVPSISYELHKKLLSVAEKHGLTLERRLEMTGVCASQMALTLLGGPNRLNPKNVHQRPTVALLCGPHVKGAQGISCGRHLANHDVQVILFLPNFVKMLESITNELSLFSKTQGQQVSSLKDLPTSPVDLVINCLDCPENVFLRDQPWYKAAVAWANQNRAPVLSIDPPVHEVEQGIDAKWSLALGLPLPLGEHAGRIYLCDIGIPQQVFQEVGINYHSPFGCKFVIPLHSA | -4.243 | 4.9273 | – | –
USP8 (protein, UniProt P40818 1-1118, looked up) Ubiquitin carboxyl-terminal …: MPAVASVPKELYLSSSLKDLNKKTEVKPEKISTKSYVHSALKIFKTAEECRLDRDEERAYVLYMKYVTVYNLIKKRPDFKQQQDYFHSILGPGNIKKAVEEAERLSESLKLRYEEAEVRKKLEEKDRQEEAQRLQQKRQETGREDGGTLAKGSLENVLDSKDKTQKSNGEKNEKCETKEKGAITAKELYTMMTDKNISLIIMDARRMQDYQDSCILHSLSVPEEAISPGVTASWIEAHLPDDSKDTWKKRGNVEYVVLLDWFSSAKDLQIGTTLRSLKDALFKWESKTVLRNEPLVLEGGYENWLLCYPQYTTNAKVTPPPRRQNEEVSISLDFTYPSLEESIPSKPAAQTPPASIEVDENIELISGQNERMGPLNISTPVEPVAASKSDVSPIIQPVPSIKNVPQIDRTKKPAVKLPEEHRIKSESTNHEQQSPQSGKVIPDRSTKPVVFSPTLMLTDEEKARIHAETALLMEKNKQEKELRERQQEEQKEKLRKEEQEQKAKKKQEAEENEITEKQQKAKEEMEKKESEQAKKEDKETSAKRGKEITGVKRQSKSEHETSDAKKSVEDRGKRCPTPEIQKKSTGDVPHTSVTGDSGSGKPFKIKGQPESGILRTGTFREDTDDTERNKAQREPLTRARSEEMGRIVPGLPSGWAKFLDPITGTFRYYHSPTNTVHMYPPEMAPSSAPPSTPPTHKAKPQIPAERDREPSKLKRSYSSPDITQAIQEEEKRKPTVTPTVNRENKPTCYPKAEISRLSASQIRNLNPVFGGSGPALTGLRNLGNTCYMNSILQCLCNAPHLADYFNRNCYQDDINRSNLLGHKGEVAEEFGIIMKALWTGQYRYISPKDFKITIGKINDQFAGYSQQDSQELLLFLMDGLHEDLNKADNRKRYKEENNDHLDDFKAAEHAWQKHKQLNESIIVALFQGQFKSTVQCLTCHKKSRTFEAFMYLSLPLASTSKCTLQDCLRLFSKEEKLTDNNRFYCSHCRARRDSLKKIEIWKLPPVLLVHLKRFSYDGRWKQKLQTSVDFPLENLDLSQYVIGPKNNLKKYNLFSVSNHYGGLDGGHYTAYCKNAARQRWFKFDDHEVSDISVSSVKSSAAYILFYTSLGPRVTDVAT | -3.991 | 6.726 | – | –
RAE1 (protein, UniProt P78406 1-368, looked up) mRNA export factor RAE1: MSLFGTTSGFGTSGTSMFGSATTDNHNPMKDIEVTSSPDDSIGCLSFSPPTLPGNFLIAGSWANDVRCWEVQDSGQTIPKAQQMHTGPVLDVCWSDDGSKVFTASCDKTAKMWDLSSNQAIQIAQHDAPVKTIHWIKAPNYSCVMTGSWDKTLKFWDTRSSNPMMVLQLPERCYCADVIYPMAVVATAERGLIVYQLENQPSEFRRIESPLKHQHRCVAIFKDKQNKPTGFALGSIEGRVAIHYINPPNPAKDNFTFKCHRSNGTNTSAPQDIYAVNGIAFHPVHGTLATVGSDGRFSFWDKDARTKLKTSEQLDQPISACCFNHNGNIFAYASSYDWSKGHEFYNPQKKNYIFLRNAAEELKPRNKK | -4.214 | 3.4084 | – | –
TRAM1 (protein, UniProt Q15629 1-374, looked up) Translocating …: MAIRKKSTKSPPVLSHEFVLQNHADIVSCVAMVFLLGLMFEITAKASIIFVTLQYNVTLPATEEQATESVSLYYYGIKDLATVFFYMLVAIIIHAVIQEYMLDKINRRMHFSKTKHSKFNESGQLSAFYLFACVWGTFILISENYISDPTILWRAYPHNLMTFQMKFFYISQLAYWLHAFPELYFQKTKKEDIPRQLVYIGLYLFHIAGAYLLNLNHLGLVLLVLHYFVEFLFHISRLFYFSNEKYQKGFSLWAVLFVLGRLLTLILSVLTVGFGLARAENQKLDFSTGNFNVLAVRIAVLASICVTQAFMMWKFINFQLRRWREHSAFQAPAVKKKPTVTKGRSSKKGTENGVNGTLTSNVADSPRNKKEKSS | – | – | 1.521 | 0.1201
